Several values for one entry are separate records, joined by “and”; a condition that tells them apart may be missing. Equal entries are not always repeated. Where two headings read alike, the source gives them in different places. Blank lines part the entries; values can stand above or below the binder they belong to.
Key:
[1] = biological target: T1, recombinant human BAFF (human, UniProt Q9Y275 134-285); assay: cell-based or functional assay
[2] = biological target: T1, recombinant human BAFF; assay: cell-based or functional assay; remark: listed apart in the source
[3] = biological target: T1, recombinant human BAFF; assay: cell-based or functional assay; remark: listed apart in the source
[4] = biological target: single chain APRIL-BAFF-BAFF heterotrimer (ABB) (human, UniProt O75888 111-250; Q9Y275 140-285; Q9Y275 140-285, limits assumed); assay: cell-based or functional assay
[5] = biological target: single chain BAFF homotrimer (BAFF-BAFF-BAFF) (human, UniProt Q9Y275 140-285, limits assumed); assay: cell-based or functional assay
[6] = biological target: T1, recombinant human BAFF; assay: cell-based or functional assay; remark: listed apart in the source
[7] = biological target: T2, recombinant human APRIL (human, UniProt O75888 105-250, limits assumed); assay: cell-based or functional assay
T2 sequence (looked up): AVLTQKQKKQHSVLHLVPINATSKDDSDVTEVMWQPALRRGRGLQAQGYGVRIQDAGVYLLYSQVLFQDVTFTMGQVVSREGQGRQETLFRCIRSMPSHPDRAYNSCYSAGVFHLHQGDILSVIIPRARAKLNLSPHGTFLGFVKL

[8] = biological target: T1, recombinant human BAFF; assay: cell-based or functional assay; remark: listed apart in the source
[9] = biological target: T1, recombinant human BAFF; assay: SPR
[10] = biological target: T2, recombinant human APRIL; assay: cell-based or functional assay; remark: listed apart in the source
[11] = biological target: T1, recombinant human BAFF; assay: cell-based or functional assay; remark: listed apart in the source
[12] = biological target: T2, recombinant human APRIL; assay: cell-based or functional assay; remark: listed apart in the source
[13] = biological target: T2, recombinant human APRIL; assay: cell-based or functional assay; remark: listed apart in the source
[14] = biological target: T1, recombinant human BAFF; assay: cell-based or functional assay; remark: listed apart in the source
[15] = biological target: T1, recombinant human BAFF; assay: cell-based or functional assay; remark: listed apart in the source
[16] = biological target: cynomolgus monkey APRIL (cynomolgus monkey); assay: cell-based or functional assay
[17] = biological target: rat APRIL (rat); assay: cell-based or functional assay
[18] = biological target: T3, recombinant mouse APRIL (mouse, UniProt Q9D777 96-241, limits assumed); assay: cell-based or functional assay
T3 sequence (looked up): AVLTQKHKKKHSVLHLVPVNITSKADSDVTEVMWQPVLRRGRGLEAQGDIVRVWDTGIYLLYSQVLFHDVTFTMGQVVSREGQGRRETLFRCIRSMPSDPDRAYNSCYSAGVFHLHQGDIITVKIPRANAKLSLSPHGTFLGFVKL

[19] = biological target: T2, recombinant human APRIL; assay: cell-based or functional assay; remark: listed apart in the source
[20] = biological target: T4, recombinant mouse BAFF (mouse, UniProt Q9WU72 127-309); assay: cell-based or functional assay
[21] = biological target: T1, recombinant human BAFF; assay: cell-based or functional assay; remark: listed apart in the source
[22] = biological target: cynomolgus monkey BAFF (cynomolgus monkey, UniProt A0A2K5V2X4 134-285); assay: cell-based or functional assay
[23] = biological target: rat BAFF (rat); assay: cell-based or functional assay
[24] = biological target: T2, recombinant human APRIL; assay: cell-based or functional assay; remark: listed apart in the source
[25] = biological target: T1, recombinant human BAFF; assay: cell-based or functional assay; remark: listed apart in the source
[26] = biological target: T2, recombinant human APRIL; assay: SPR, apparent (KD app)
[27] = biological target: T3, recombinant mouse APRIL; assay: cell-based or functional assay; remark: listed apart in the source
[28] = biological target: T2, recombinant human APRIL; assay: cell-based or functional assay; remark: listed apart in the source
[29] = biological target: T4, recombinant mouse BAFF; assay: cell-based or functional assay; remark: listed apart in the source
[30] = biological target: T2, recombinant human APRIL; assay: SPR, apparent (kd app)
[31] = biological target: T1, recombinant human BAFF; assay: SPR; remark: listed apart in the source
[32] = biological target: T4, recombinant mouse BAFF; assay: cell-based or functional assay; remark: listed apart in the source
[33] = biological target: BAFF 60-mer (human, UniProt Q9Y275 134-285, limits assumed); assay: cell-based or functional assay
[34] = biological target: single chain BAFF-APRIL-APRIL heterotrimer (BAA) (human, UniProt Q9Y275 140-285; O75888 111-250; O75888 111-250, limits assumed); assay: cell-based or functional assay
[35] = biological target: T2, recombinant human APRIL; assay: cell-based or functional assay; remark: listed apart in the source
[36] = biological target: T2, recombinant human APRIL; assay: SPR, apparent (ka app); apparent (ka app)

T4 sequence (Q9WU72 127-309 limits assumed): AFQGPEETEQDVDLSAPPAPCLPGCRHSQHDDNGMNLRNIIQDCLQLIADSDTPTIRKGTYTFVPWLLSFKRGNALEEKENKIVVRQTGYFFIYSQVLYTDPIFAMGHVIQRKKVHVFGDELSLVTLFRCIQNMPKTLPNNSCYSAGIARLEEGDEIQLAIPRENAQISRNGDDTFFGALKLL

IC50, Jurkat/NF-kB/TACI reporter [1]: 2.26 nM
IC50, Jurkat/NF-kB/TACI reporter [2]: 2500 nM
IC50 relative to TACI 30-110-Fc [2]: 0.43 ratio
IC50, TACI/Jurkat/NF-kB reporter [3]: 4.8 nM
IC50, TACI/Jurkat/NF-kB reporter [4]: 0.09 nM
IC50, TACI/Jurkat/NF-kB reporter [5]: 8.52 nM
IC50, Jurkat/NF-kB/TACI reporter [6]: 2.19 nM
IC50 relative to WT TACI (68-110)-Fc (Δ WT) [6]: 1.18 ratio
B1: Belimumab (antibody, V domains shown)
VH: QVQLQQSGAEVKKPGSSVRVSCKASGGTFNNNAINWVRQAPGQGLEWMGGIIPMFGTAKYSQNFQGRVAITADESTGTASMELSSLRSEDTAVYYCARSRDLLLFPHHALSPWGRGTMVTVSS
VL: SSELTQDPAVSVALGQTVRVTCQGDSLRSYYASWYQQKPGQAPVLVIYGKNNRPSGIPDRFSGSSSGNTASLTITGAQAEDEADYYCSSRDSSGNHWVFGGGTELTVLG

IC50 (read off the curve), human APRIL, NF-κB luciferase reporter, Jurkat/TACI/NF-κB cells [7]: ~3 nM
IC50 (read off the curve), human BAFF, NF-κB luciferase reporter, Jurkat/TACI/NF-κB cells [8]: ~2 nM
B2: 7 TACI CRD1/CRD2-Fc (Fc fusion)
variant TACI CRD1/CRD2 - linker - Fc chain: VAMRSCPEEQYWDPLLGTCMSCKTICNHQSQRTCAAFCRSLSCRKEQGKFYDHLLRDCISCASICGQHPKQCDYFCENKLRSGSGGGGSEPKSSDKTHTCPPCPAPEAEGAPSVFLFPPKPKDTLMISRTPEVTCVVVDVSHEDPEVKFNWYVDGVEVHNAKTKPREEQYNSTYRVVSVLTVLHQDWLNGKEYKCKVSNKALPAPIEKTISKAKGQPREPQVYTLPPSRDELTKNQVSLTCLVKGFYPSDIAVEWESNGQPENNYKTTPPVLDSDGSFFLYSKLTVDKSRWQQGNVFSCSVMHEALHNHYTQKSLSLSPG

fold better affinity than telitacicept [9]: ~8 fold
fold better neutralization than the anti-APRIL mAb [10]: 5.7 fold
fold better neutralization than belimumab [11]: 3.4 fold
IC50, Jurkat/NF-kB/TACI reporter [12]: 1.76 nM
IC50, Jurkat/NF-kB/TACI reporter [1]: 1.34 nM
IC50, Jurkat/NF-kB/TACI reporter [13]: 179 nM
IC50 relative to TACI 30-110-Fc [13]: 0.05 ratio
IC50, Jurkat/NF-kB/TACI reporter [2]: 1220 nM
IC50 relative to TACI 30-110-Fc [2]: 0.21 ratio
IC50 (read off the curve), human BAFF, NF-κB luciferase reporter, Jurkat/NF-κB/TACI cells [14]: ~1 nM
IC50 (read off the curve), human BAFF, NF-κB luciferase reporter, TACI/Jurkat/NF-κB cells [15]: 1 to 2 nM
IC50, Jurkat/NF-kB/TACI reporter [16]: 3.3 nM
IC50, Jurkat/NF-kB/TACI reporter [17]: 22.7 nM
IC50, Jurkat/NF-kB/TACI reporter [18]: 24.5 nM
IC50, Jurkat/NF-kB/TACI reporter [19]: 3.4 nM
IC50, Jurkat/NF-kB/TACI reporter [20]: 15.2 nM
IC50, Jurkat/NF-kB/TACI reporter [21]: 2.8 nM
IC50, Jurkat/NF-kB/TACI reporter [22]: 1.9 nM
IC50, Jurkat/NF-kB/TACI reporter [23]: 3.8 nM
IC50, Jurkat/NF-kB/TACI reporter [24]: 214 nM
IC50 relative to TACI 30-110 [24]: 0.05 ratio
IC50, Jurkat/NF-kB/TACI reporter [25]: 1270 nM
IC50 relative to TACI 30-110 [25]: 0.28 ratio
Kd [26]: 0.001 nM
IC50, TACI/Jurkat/NF-kB reporter [27]: 0.9 nM
IC50, TACI/Jurkat/NF-kB reporter [28]: 3.8 nM
IC50, TACI/Jurkat/NF-kB reporter [29]: 1 nM
IC50, TACI/Jurkat/NF-kB reporter [3]: 1.4 nM
koff [30]: 0.007 s⁻¹
Kd [31]: 0.0593 nM
koff [31]: 3.67e-05 s⁻¹
kon [31]: 619000 M⁻¹ s⁻¹
IC50 (read off the curve), mouse BAFF, NF-κB luciferase reporter, Jurkat/NF-κB/TACI cells [32]: ~1 nM
IC50, TACI/Jurkat/NF-kB reporter [33]: 14.7 nM
IC50, TACI/Jurkat/NF-kB reporter [4]: 0.103 nM
IC50, TACI/Jurkat/NF-kB reporter [5]: 3.36 nM
IC50, TACI/Jurkat/NF-kB reporter [34]: < 0.016 nM
IC50, Jurkat/NF-kB/TACI reporter [35]: 9.21 nM
IC50 relative to WT TACI (68-110)-Fc (Δ WT) [35]: 0.75 ratio
IC50, Jurkat/NF-kB/TACI reporter [6]: 1.55 nM
IC50 relative to WT TACI (68-110)-Fc (Δ WT) [6]: 0.84 ratio
kon [36]: 7e+09 M⁻¹ s⁻¹
B3: 26 TACI CRD2-Fc (Fc fusion)
chain: SLSCRKEQGEYYDHLLRDCISCASICGQHPKQCADFCENKLRSGSGGGGSEPKSSDKTHTCPPCPAPEAEGAPSVFLFPPKPKDTLMISRTPEVTCVVVDVSHEDPEVKFNWYVDGVEVHNAKTKPREEQYNSTYRVVSVLTVLHQDWLNGKEYKCKVSNKALPAPIEKTISKAKGQPREPQVYTLPPSRDELTKNQVSLTCLVKGFYPSDIAVEWESNGQPENNYKTTPPVLDSDGSFFLYSKLTVDKSRWQQGNVFSCSVMHEALHNHYTQKSLSLSPG
notes: also called TACI (26)-Fc_73; 26 TACI-Fc

IC50, Jurkat/NF-kB/TACI reporter [12]: 17.2 nM
IC50, Jurkat/NF-kB/TACI reporter [1]: 6.85 nM
IC50, TACI/Jurkat/NF-kB reporter [27]: 15.5 nM
IC50, TACI/Jurkat/NF-kB reporter [28]: 53.9 nM
IC50, TACI/Jurkat/NF-kB reporter [29]: 7.9 nM
IC50, TACI/Jurkat/NF-kB reporter [3]: 14.5 nM
Kd [31]: 0.491 nM
koff [31]: 8.63e-05 s⁻¹
kon [31]: 175000 M⁻¹ s⁻¹
IC50, TACI/Jurkat/NF-kB reporter [33]: > 100 nM
IC50, TACI/Jurkat/NF-kB reporter [4]: 0.408 nM
IC50, TACI/Jurkat/NF-kB reporter [5]: 30.8 nM
IC50, TACI/Jurkat/NF-kB reporter [34]: 0.173 nM
IC50, Jurkat/NF-kB/TACI reporter [6]: 9.17 nM and 7.3 nM
B4: Telitacicept (Fc fusion)
chain: SRVDQEERFPQGLWTGVAMRSCPEEQYWDPLLGTCMSCKTICNHQSQRTCAAFCRSLSCRKEQGKFYDHLLRDCISCASICGQHPKQCAYFCENKLRSPVNLPPEL
modifications: The drug is a disulfide-linked Fc-fusion homodimer. Only one TACI ECD arm is given, and the Fc is left out.
notes: Commercial product (sourced through Clinigen; RemeGen); also called Telitacicept/Tai'ai (RemeGen); WT TACI-Fc (Telitacicept); not shown: Fc part of the commercial drug (Clinigen/RemeGen)

IC50, TACI/Jurkat/NF-kB reporter [27]: 14.3 nM
IC50, TACI/Jurkat/NF-kB reporter [28]: 73.1 nM
IC50, TACI/Jurkat/NF-kB reporter [29]: 9.4 nM
IC50, TACI/Jurkat/NF-kB reporter [3]: 19.6 nM
B5: WT TACI 13-118-Fc based on the published telitacicept sequence (Fc fusion)
chain: SRVDQEERFPQGLWTGVAMRSCPEEQYWDPLLGTCMSCKTICNHQSQRTCAAFCRSLSCRKEQGKFYDHLLRDCISCASICGQHPKQCAYFCENKLRSPVNLPPEL

— US20260250352A1 (ALPINE IMMUNE SCIENCES, published 2026)
